Consider 28 molecules from PMC6261655, “Harnessing a previously unidentified capability of bacterial allosteric transcription factors for sensing diverse small molecules in vitro” (Science Advances, 2018).

To fix the notation:
T1: HucR (Deinococcus radiodurans, UniProt Q9RV71)
T1 sequence (Q9RV71 1-181): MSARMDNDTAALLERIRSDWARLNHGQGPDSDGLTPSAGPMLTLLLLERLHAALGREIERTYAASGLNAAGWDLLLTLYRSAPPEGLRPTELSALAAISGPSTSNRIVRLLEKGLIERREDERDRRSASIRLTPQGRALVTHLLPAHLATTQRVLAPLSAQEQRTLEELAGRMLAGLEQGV

T2: AvaR1 (Streptomyces avermitilis, UniProt Q82H41 1-234)
T2 sequence: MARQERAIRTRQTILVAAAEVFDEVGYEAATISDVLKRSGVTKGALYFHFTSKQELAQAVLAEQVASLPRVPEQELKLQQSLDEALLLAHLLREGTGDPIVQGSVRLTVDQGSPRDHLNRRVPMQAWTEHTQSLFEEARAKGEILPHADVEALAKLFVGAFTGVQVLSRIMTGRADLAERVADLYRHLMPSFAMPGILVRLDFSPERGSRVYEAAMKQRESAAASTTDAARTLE

B1: DNATetR-0 (dsDNA)
DNA 1: CCTCCGATTTTCAGATTGACACTCTATCATTGATAGGGATATATTCCAACTCTATCAAT
DNA 2: ATTGATAGAGTTGGAATATATCCCTATCAATGATAGAGTGTCAATCTGAAAATCGGAGG
B2: DNATetR-11 (dsDNA)
DNA 1: B1 DNA 1
DNA 2: ATTGATAGAGTTGGAATATAT
DNA 3: CCCTATCAATGATAGAGTGTCAATCTGAAAATCGGAGG
modifications: nick in bottom strand
B3: DNATetR-12 (dsDNA)
DNA 1: B1 DNA 1
DNA 2: ATTGATAGAGTTGGAATAT
DNA 3: ATCCCTATCAATGATAGAGTGTCAATCTGAAAATCGGAGG
modifications: nick in bottom strand
B4: DNATetR-4 (dsDNA)
DNA 1: B1 DNA 1
DNA 2: ATTGATAGAGTTGGAATATATCCCTATCAATGAT
DNA 3: AGAGTGTCAATCTGAAAATCGGAGG
modifications: nick in bottom strand
B5: DNATetR-8 (dsDNA)
DNA 1: B1 DNA 1
DNA 2: ATTGATAGAGTTGGAATATATCCCTAT
DNA 3: CAATGATAGAGTGTCAATCTGAAAATCGGAGG
modifications: nick in bottom strand
B6: DNATetR-6 (dsDNA)
DNA 1: B1 DNA 1
DNA 2: ATTGATAGAGTTGGAATATATCCCTATCAA
DNA 3: TGATAGAGTGTCAATCTGAAAATCGGAGG
modifications: nick in bottom strand
B7: DNATetR-5 (dsDNA)
DNA 1: B1 DNA 1
DNA 2: ATTGATAGAGTTGGAATATATCCCTATCAATG
DNA 3: ATAGAGTGTCAATCTGAAAATCGGAGG
modifications: nick in bottom strand
B8: DNATetR-1 (dsDNA)
DNA 1: B1 DNA 1
DNA 2: ATTGATAGAGTTGGAATATATCCCTATCAATGATAGAGTG
DNA 3: TCAATCTGAAAATCGGAGG
modifications: nick in bottom strand
B9: DNATetR-9 (dsDNA)
DNA 1: B1 DNA 1
DNA 2: ATTGATAGAGTTGGAATATATCCCT
DNA 3: ATCAATGATAGAGTGTCAATCTGAAAATCGGAGG
modifications: nick in bottom strand
B10: DNATetR-2 (dsDNA)
DNA 1: B1 DNA 1
DNA 2: ATTGATAGAGTTGGAATATATCCCTATCAATGATAGAG
DNA 3: TGTCAATCTGAAAATCGGAGG
modifications: nick in bottom strand
B11: DNATetR-10 (dsDNA)
DNA 1: B1 DNA 1
DNA 2: ATTGATAGAGTTGGAATATATCC
DNA 3: CTATCAATGATAGAGTGTCAATCTGAAAATCGGAGG
modifications: nick in bottom strand
B12: DNATetR-3 (dsDNA)
DNA 1: B1 DNA 1
DNA 2: ATTGATAGAGTTGGAATATATCCCTATCAATGATAG
DNA 3: AGTGTCAATCTGAAAATCGGAGG
modifications: nick in bottom strand
B13: DNATetR-7 (dsDNA)
DNA 1: B1 DNA 1
DNA 2: ATTGATAGAGTTGGAATATATCCCTATCA
DNA 3: ATGATAGAGTGTCAATCTGAAAATCGGAGG
modifications: nick in bottom strand
B14: DNAAvaR1-0 (dsDNA)
DNA 1: CGCAAGAGGGACTTGAAGACAAAACCGTCTAGTACGTATCTTTGACCTCCAGCTCTTCC
DNA 2: GGAAGAGCTGGAGGTCAAAGATACGTACTAGACGGTTTTGTCTTCAAGTCCCTCTTGCG
B15: DNAAvaR1-6 (dsDNA)
DNA 1: B14 DNA 1
DNA 2: GGAAGAGCTGGAGGTCAAAGATACGTACTA
DNA 3: GACGGTTTTGTCTTCAAGTCCCTCTTGCG
modifications: nick in bottom strand
B16: DNAAvaR1-4 (dsDNA)
DNA 1: B14 DNA 1
DNA 2: GGAAGAGCTGGAGGTCAAAGATACGTACTAGACG
DNA 3: GTTTTGTCTTCAAGTCCCTCTTGCG
modifications: nick in bottom strand
B17: DNAAvaR1-10 (dsDNA)
DNA 1: B14 DNA 1
DNA 2: GGAAGAGCTGGAGGTCAAAGAT
DNA 3: ACGTACTAGACGGTTTTGTCTTCAAGTCCCTCTTGCG
modifications: nick in bottom strand
B18: DNAAvaR1-5 (dsDNA)
DNA 1: B14 DNA 1
DNA 2: GGAAGAGCTGGAGGTCAAAGATACGTACTAGA
DNA 3: CGGTTTTGTCTTCAAGTCCCTCTTGCG
modifications: nick in bottom strand
B19: DNAAvaR1-9 (dsDNA)
DNA 1: B14 DNA 1
DNA 2: GGAAGAGCTGGAGGTCAAAGATAC
DNA 3: GTACTAGACGGTTTTGTCTTCAAGTCCCTCTTGCG
modifications: nick in bottom strand
B20: DNAAvaR1-8 (dsDNA)
DNA 1: B14 DNA 1
DNA 2: GGAAGAGCTGGAGGTCAAAGATACGT
DNA 3: ACTAGACGGTTTTGTCTTCAAGTCCCTCTTGCG
modifications: nick in bottom strand
B21: DNAAvaR1-7 (dsDNA)
DNA 1: B14 DNA 1
DNA 2: GGAAGAGCTGGAGGTCAAAGATACGTAC
DNA 3: TAGACGGTTTTGTCTTCAAGTCCCTCTTGCG
modifications: nick in bottom strand
B22: DNAAvaR1-1 (dsDNA)
DNA 1: B14 DNA 1
DNA 2: GGAAGAGCTGGAGGTCAAAGATACGTACTAGACGGTTTTG
DNA 3: TCTTCAAGTCCCTCTTGCG
modifications: nick in bottom strand
B23: DNAAvaR1-2 (dsDNA)
DNA 1: B14 DNA 1
DNA 2: GGAAGAGCTGGAGGTCAAAGATACGTACTAGACGGTTT
DNA 3: TGTCTTCAAGTCCCTCTTGCG
modifications: nick in bottom strand
B24: DNAAvaR1-11 (dsDNA)
DNA 1: B14 DNA 1
DNA 2: GGAAGAGCTGGAGGTCAAAG
DNA 3: ATACGTACTAGACGGTTTTGTCTTCAAGTCCCTCTTGCG
modifications: nick in bottom strand
B25: DNAAvaR1-3 (dsDNA)
DNA 1: B14 DNA 1
DNA 2: GGAAGAGCTGGAGGTCAAAGATACGTACTAGACGGT
DNA 3: TTTGTCTTCAAGTCCCTCTTGCG
modifications: nick in bottom strand
B26: DNAAvaR1-12 (dsDNA)
DNA 1: B14 DNA 1
DNA 2: GGAAGAGCTGGAGGTCAA
DNA 3: AGATACGTACTAGACGGTTTTGTCTTCAAGTCCCTCTTGCG
modifications: nick in bottom strand

The target of one data set is T1, HucR. The experiment in a line: isothermal titration calorimetry. It is filed as binding.
Conditions: not given
The molecule `O=c1[nH]c(=O)c2[nH]c(=O)[nH]c2[nH]1` [UA] registered a Kd of 9350 ± 990 nM.

The target of the next data set is HosA (Escherichia coli, UniProt Q7ABA6). The experiment in a line: isothermal titration calorimetry.
Sequence of HosA (Q7ABA6 whole entry, looked up): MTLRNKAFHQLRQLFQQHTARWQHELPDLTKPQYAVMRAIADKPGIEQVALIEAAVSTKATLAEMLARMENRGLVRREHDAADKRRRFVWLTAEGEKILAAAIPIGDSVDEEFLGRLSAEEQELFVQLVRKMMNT
Conditions: not given
It is filed as binding.
Take `O=C(O)c1ccc(O)cc1` [4-HBA]: the affinity, expressed as Kd, was 4740 ± 250 nM.

The target of another data set is TetR (Escherichia coli, UniProt P04483 1-207). The experiment in a line: BLI; BLI: HBS-EP (10 mM Hepes, 15 mM NaCl, 3 mM EDTA, 0.005% Tween 20, 0.1% BSA, pH 7.4), temperature not stated; EMSA: 20 mM Tris-HCl pH 7.5, 2 mM DTT, 5 mM MgCl2. The settings on record: protein: recombinant; chain copies: 2; label: 5'-biotin on strand 1; blunt.
Sequence of TetR (P04483 whole entry): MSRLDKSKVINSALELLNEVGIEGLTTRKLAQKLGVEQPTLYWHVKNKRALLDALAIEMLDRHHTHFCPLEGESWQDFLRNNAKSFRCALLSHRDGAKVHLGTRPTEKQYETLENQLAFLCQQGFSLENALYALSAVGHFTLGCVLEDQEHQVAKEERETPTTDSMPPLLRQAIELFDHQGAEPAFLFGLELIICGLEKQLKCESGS
For B1, the Kd was determined as 1.08 ± 0.06 nM.

Staying with this data set, now noted: protein: recombinant; chain copies: 2; label: 5'-biotin on strand 1; blunt, nicked 1:2 1:3.
Regarding B2, the dissociation constant (Kd) was determined as 1.58 ± 0.04 nM.

Regarding B3, the equilibrium dissociation constant (Kd) is 1.1 ± 0.05 nM.

For the molecule B4, the Kd came to 1.89 ± 0.07 nM.

For the molecule B5, the Kd was determined as 1.52 ± 0.044 nM.

Regarding B6, the equilibrium dissociation constant (Kd) was 2 ± 0.59 nM.

For B7, the dissociation constant Kd stood at 1.91 ± 0.03 nM.

Consider B8, for which the Kd amounted to 1.3 ± 0.04 nM.

B9: the Kd amounted to 0.67 ± 0.03 nM.

On to B10, for which the Kd was determined as 1.78 ± 0.07 nM.

Take B11: the Kd turned out to be 1.22 ± 0.03 nM.

With B12, the dissociation constant Kd is 1.72 ± 0.11 nM.

Consider B13, for which the dissociation constant (Kd) came out at 1.85 ± 0.06 nM.

Another data set has as its target T2, AvaR1. Described as above. The note with it: protein: recombinant; label: 5'-biotin on strand 1; blunt.
On to B14, for which the Kd worked out at 11.7 ± 0.028 nM.

Still in this data set, the particulars now being: protein: recombinant; label: 5'-biotin on strand 1; blunt, nicked 1:2 1:3.
For B15, the Kd worked out at 12.6 ± 0.021 nM.

As for B16, the dissociation constant (Kd) came out at 16 ± 0.032 nM.

On to B17, for which the Kd was 11 ± 0.026 nM.

Take B18: the dissociation constant (Kd) amounted to 14 ± 0.027 nM.

With B19, the dissociation constant Kd was 22.2 ± 0.245 nM.

Regarding B20, the Kd came to 14.1 ± 0.025 nM.

As for B21, the equilibrium dissociation constant (Kd) was determined as 10.8 ± 0.03 nM.

Consider B22, for which the Kd was determined as 18.3 ± 0.052 nM.

For B23, the dissociation constant Kd was determined as 15.1 ± 0.034 nM.

For B24, the equilibrium dissociation constant (Kd) came out at 13 ± 0.027 nM.

As to B25, the dissociation constant Kd was 17 ± 0.052 nM.

In the case of B26, the Kd came out at 8.33 ± 0.015 nM.
